Laboratory results as given in the supplement of paper PMC10899765.

How the values were obtained:
Conditions in all cases: 20 nM; 72 h
[1] = system: MCF10A; experiment: 5+ nucleoli phenotype percent effect (relative to siNT 0% and siKIF11 100%); higher = more cells with five or more nucleoli
Protocol: (§1)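 After 72 h, cells were fixed and stained with Hoechst and anti-fibrillarin, and nucleoli per nucleus were counted with CellProfiler. Values are plate-adjusted percent effect for the one-nucleolus and 5+ nucleoli phenotypes, normalised to siNT (0%) and to the positive controls siNOL11 or siKIF11 (100%), as the mean of biological triplicates. Percent viability is the nuclei count relative to siNT.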

[2] = system: MCF10A; experiment: percent viability (nuclei count relative to siNT); higher = more viable cells
Protocol: as §1

[3] = system: MCF10A; experiment: one-nucleolus phenotype percent effect (relative to siNT 0% and siNOL11 100%); higher = more cells with one nucleolus (ribosome biogenesis inhibition)
Protocol: as §1

With GAGUGUAGUUCUGAGCAGAGC [hsa-miR-4280] the “5+ nucleoli phenotype percent effect” value [1] was -17.9%, the percent viability [2] was 29.9% and the “one-nucleolus phenotype percent effect” value [3] was 18.3%.
In the case of GAGUUCUACAGUCAGAC [hsa-miR-3168], the “5+ nucleoli phenotype percent effect” value [1] is reported as -12.9%, the percent viability [2] is reported as 22.3% and the “one-nucleolus phenotype percent effect” value [3] is reported as -2.63%.
In the case of “GAUAUCAGCUCAGUAGGCACCG [hsa-miR-3074-3p]”, the “5+ nucleoli phenotype percent effect” value [1] is reported as 2.53%, the percent viability [2] is reported as 25.1% and the “one-nucleolus phenotype percent effect” value [3] is reported as -9.52%.
In the case of GAUAUUCAGAGGCUAGGUGG [hsa-miR-6074], the “5+ nucleoli phenotype percent effect” value [1] is reported as -1.31%, the percent viability [2] is reported as 34.5% and the “one-nucleolus phenotype percent effect” value [3] is reported as -6.04%.
For “GAUCCAUCUCUGCCUGUAUUGGC [hsa-miR-7151-5p]”, the “5+ nucleoli phenotype percent effect” value [1] was -8.39%, the percent viability [2] was 80.6% and the “one-nucleolus phenotype percent effect” value [3] was 5.88%.
With “GAUCCCUUUAUCUGUCCUCUAG [hsa-miR-6866-3p]” the “5+ nucleoli phenotype percent effect” value [1] was 77.6%, the percent viability [2] was 112% and the “one-nucleolus phenotype percent effect” value [3] was -33.5%.
For GAUCUCACUUUGUUGCCCAGG [hsa-miR-1285-5p], the “5+ nucleoli phenotype percent effect” value [1] was 15.8%, the percent viability [2] was 43.4% and the “one-nucleolus phenotype percent effect” value [3] was -20.8%.
With GAUGAGCUCAUUGUAAUAUGAG [hsa-miR-556-5p] the “5+ nucleoli phenotype percent effect” value [1] was 8.79%, the percent viability [2] was 111% and the “one-nucleolus phenotype percent effect” value [3] was -2.48%.
In the case of “GAUGAUGAUGGCAGCAAAUUCUGAAA [hsa-miR-1272]”, the “5+ nucleoli phenotype percent effect” value [1] is reported as 4.28%, the percent viability [2] is reported as 76.8% and the “one-nucleolus phenotype percent effect” value [3] is reported as 8.72%.
GAUGAUGCUGCUGAUGCUG [hsa-miR-1322] was tested, and the “5+ nucleoli phenotype percent effect” value [1] was -20.7%, the percent viability [2] was 41.1% and the “one-nucleolus phenotype percent effect” value [3] was 24.5%.
In the case of “GAUGCGCCGCCCACUGCCCCGCGC [hsa-miR-4787-3p]”, the “5+ nucleoli phenotype percent effect” value [1] is reported as 33.1%, the percent viability [2] is reported as 76.2% and the “one-nucleolus phenotype percent effect” value [3] is reported as -16.2%.
For GAUGGUUGACCAGAGAGCACAC [hsa-miR-758-5p], the “5+ nucleoli phenotype percent effect” value [1] was 60.1%, the percent viability [2] was 56.6% and the “one-nucleolus phenotype percent effect” value [3] was -21.1%.
GAUUGAGACUAGUAGGGCUAGGC [hsa-miR-4461] was tested, and the “5+ nucleoli phenotype percent effect” value [1] was -3.16%, the percent viability [2] was 31.4% and the “one-nucleolus phenotype percent effect” value [3] was 3.4%.
With GAUUUCAGUGGAGUGAAGUUC [hsa-miR-205-3p] the “5+ nucleoli phenotype percent effect” value [1] was 51.7%, the percent viability [2] was 133% and the “one-nucleolus phenotype percent effect” value [3] was -30.2%.
With “GCAAAGCACACGGCCUGCAGAGA [hsa-miR-330-3p]” the “5+ nucleoli phenotype percent effect” value [1] was 16.5%, the percent viability [2] was 83.2% and the “one-nucleolus phenotype percent effect” value [3] was -7.99%.
For GCACCCAGGCAAGGAUUCUG [hsa-miR-500b-3p], the “5+ nucleoli phenotype percent effect” value [1] was -15.3%, the percent viability [2] was 76.8% and the “one-nucleolus phenotype percent effect” value [3] was 11.8%.
In the case of GCAGAGAACAAAGGACUCAGU [hsa-miR-3919], the “5+ nucleoli phenotype percent effect” value [1] is reported as -14.9%, the percent viability [2] is reported as 23.3% and the “one-nucleolus phenotype percent effect” value [3] is reported as 38.7%.
GCAGAGUGCAAACAAUUUUGAC [hsa-miR-759] was tested, and the “5+ nucleoli phenotype percent effect” value [1] was 51.1%, the percent viability [2] was 90.2% and the “one-nucleolus phenotype percent effect” value [3] was -27.2%.
For “GCAGAUCAGGACUGUAACUCACC [hsa-miR-1288-5p]”, the “5+ nucleoli phenotype percent effect” value [1] was 31.1%, the percent viability [2] was 48.5% and the “one-nucleolus phenotype percent effect” value [3] was -14.5%.
GCAGCAGAGAAUAGGACUACGUC [hsa-miR-922] was tested, and the “5+ nucleoli phenotype percent effect” value [1] was 9.43%, the percent viability [2] was 108% and the “one-nucleolus phenotype percent effect” value [3] was -15%.
With GCAGCAGGGUGAAACUGACACA [hsa-miR-761] the “5+ nucleoli phenotype percent effect” value [1] was 9.29%, the percent viability [2] was 56.9% and the “one-nucleolus phenotype percent effect” value [3] was 4.85%.
GCAGCAUUCAUGUCCC [hsa-miR-4310] was tested, and the “5+ nucleoli phenotype percent effect” value [1] was 17.2%, the percent viability [2] was 62.6% and the “one-nucleolus phenotype percent effect” value [3] was -11%.
With GCAGCCCAGCUGAGGCCUCUG [hsa-miR-4690-3p] the “5+ nucleoli phenotype percent effect” value [1] was 21.1%, the percent viability [2] was 119% and the “one-nucleolus phenotype percent effect” value [3] was -17.1%.
GCAGGAACUUGUGAGUCUCCU [hsa-miR-873-5p] was tested, and the “5+ nucleoli phenotype percent effect” value [1] was 31.2%, the percent viability [2] was 122% and the “one-nucleolus phenotype percent effect” value [3] was -17.4%.
